Assay results reported in the DeepSol protein solubility set.

Test: soluble on expression in E. coli; label from the status in PepcDB or PDB records

| Sequence | soluble on expression in E. coli |
| --- | --- |
| MRSERSERSDDTDGDTTALALKILVAGGFGVGKTTLVGAVSEIRPLRTEELLSEAGRLVDDTDGIDRKVTTTVAMDFGRITIRSGLSLYLFGTPGQDRFWFLWDELAQGALGAVVLADTRRLADCFPAVDYFEHRHIPFVVAVNCFTGARRHDEYSVLRALDLDPGTPVVLCDARDRDSGKEVLIRLVEYAGRMHTARLLDSVRLEHHHHHH | not soluble |
| MKSRAAVAFAPGKPLEIVEIDVAPPKKGEVLIKVTHTGVCHTDAFTLSGDDPEGVFPVVLGHEGAGVVVEVGEGVTSVKPGDHVIPLYTAECGECEFCRSGKTNLCVAVRETQGKGLMPDGTTRFSYNGQPLYHYMGCSTFSEYTVVAEVSLAKINPEANHEHVCLLGCGVTTGIGAVHNTAKVQPGDSVAVFGLGAIGLAVVQGARQAKAGRIIAIDTNPKKFDLARRFGATDCINPNDYDKPIKDVLLDINKWGIDHTFECIGNVNVMRAALESAHRGWGQSVIIGVAVAGQEISTRPFQLVTGRVWKGSAFGGVKGRSQLPGMVEDAMKGDIDLEPFVTHTMSLDEINDAFDLMHEGKSIRTVIRY | soluble |
| MSTDNLLQPKLIEATLGDYPVIQNMARFYVYDMSRYCGFISEEWTCPPDGLYESYDFKIYFTDPERKAFLIQIDNELAGFALLNKFGIQAVDWSMGEFFILAKFQGKGIGQSVAHQLWRTHPGEWEISVIPENIPALSFWRQAVMTYTL | not soluble |
| MHQQLMVMIDRKRRRSFIMMRSMFSGVSGLQAHQTKMDVIGNNVANVNTVGFKSSRVTFQEVFSQTLKGASSPDPTTGRGGTNPMQVGLGLGVATIDTLMTRGSVQRTDNPTDLAIEGDGFFIVKGGSSDTFKFTRAGNFGIDRLGNLVTGSGLNVYGWQSYTKLPDGTYKFDTESQIEPINLYSDDVNKNKRMIAAKATTYAIFEGNLDASYSIYSSAASGTSSNNRFTMPVTVYDSLGNSYKINISFWKTDVTGGVTTWTWQVDSGNGVTASGATGTILFDDQGQVIESSAVTPSITIIPDSSVGSQNINVKLDFSRLTMYAADSSAKATNVDGYPAGSLVTFSIGSDGMIMGIYSNGQQQPLGLIALASFDNPAGLEKVGENMYIPTSNSGEFKKGVKAGTEGVGTLSPGTLEMSNVDLSKEFTEMIITQRGFQANSRIITTSDEMLQELVNLKR | not soluble |
| MGHHHHHHSHPSIPNPFPELCCSPFTSVLSADLFPKANSRKKQVIKVYSEDETSRALDVPSDITARDVCQLLILKNHYIDDHSWTLFEHLPHIGVERTIEDHELVIEVLSNWGIEEENKLYFRKNYAKYEFFKNP | soluble |
| HHHHHHMAEKKQWHETLHDQFGQYFAVDNVLYHEKTDHQDLIIFENAAFGRVMALDGVVQTTERDEFIYHEMMTHVPLLAHGHAKHVLIIGGGDGAMLREVTRHKNVESITMVEIDAGVVSFCRQYLPNHNAGSYDDPRFKLVIDDGVNFVNQTSQTFDVIISDCTDPIGPGESLFTSAFYEGCKRCLNPGGIFVAQNGVCFLQQEEAIDSHRKLSHYFSDVGFYQAAIPTYYGGIMTFAWATDNDALRHLSTEIIQARFLASGLKCRYYNPAIHTAAFALPQYLQDALASQPS | soluble |
| MSLSGKVGAPTLEVLRTAVSKRWSANSDLIDAIEHVSRQALLELAERAGQVDEVEDQLFRFSRILDVQPRLAILLGDCAVPAEGRVRLLRKVLERADSTVNPVVVALLSHTVELLRGQAVEEAVLFLAEVAVARRGEIVAQVGAAAELSDAQRTRLTEVLSRIYGHPVTVQLHIDAALLGGLSIAVGDEVIDGTLSSRLAAAEARLPDEGHHHHHH | not soluble |
| MTDKVIATHNGNFHADDVFSIAALKNIFPSFKLIRTRDLEVIGKADIVIDVGGEYDADAGRFDHHQRGGAGERENGIPYSSFGLIWQKYGLAICQGNQEVANSVDAGLVSTIDAIDCGHVEGVAQGISLSQTISMFNPTWQEDSHFDTCFDEAVDFASRVLTRFIASASGGINAKDIVAKAIDNAEDSRVIVLEKYTPWKRTVHALSEEALYMVYPSPSGQWRIQTVPVEPGSFEDRKPLPKQWAGLSDDALKEVTGIDDAMFCHNGLFIAGAESFESTMKMASIALQALEHHHHHH | soluble |
| DQAGKSPNAVRYHGGDEIILQGFHWNVVREAPNDWYNILRQQAATIAADGFSAIWMPVPWRDFSSWSDGSKSGGGEGYFWHDFNKNGRYGSDAQLRQAASALGGAGVKVLYDVVPNHMNRGYPDKEINLPAGQGFWRNDCADPGNYPNDCDDGDRFIGGDADLNTGHPQVYGMFRDEFTNLRSQYGAGGFRFDFVRGYAPERVNSWMTDSADNSFCVGELWKGPSEYPNWDWRNTASWQQIIKDWSDRAKCPVFDFALKERMQNGSIADWKHGLNGNPDPRWREVAVTFVDNHDTGYSPGQNGGQHHWALQDGLIRQAYAYILTSPGTPVVYWDHMYDWGYGDFIRQLIQVRRAAGVRADSAISFHSGYSGLVATVSGSQQTLVVALNSDLGNPGQVASGSFSEAVNASNGQVRVWRSGTGSGGGEPGALVSVSFRCDNGATQMGDSVYAVGNVSQLGNWSPAAALRLTDTSGYPTWKGSIALPAGQNEEWKCLIRNEANATQVRQWQGGANNSLTPSEGATTVGRL | soluble |
| MSLRITEGSAVIEVPEAYSGPGRRSPGFYNADQVLNRDLTIDLINEFGVEKVLDGFGGSGVRGIRISLETKAKVVIAEISPSSCEIIKQNIAINNAEADLIHDNFQCVSSHIAFDYIDVDPYGSPVPYLDAAIMNVRKGGYLGITATDQSTLTGSTLNKTRRRYGAYIVNDIYRHEMGIRTLIGYIARRAAAFDRYIEPQLSIWNHHYYRVFVKVGKGVNGADKMIENIGYLNKHTTIDNSFKDVNEGPVWLSNLNNAELLEKIRDPRVSKKIEMIKHDNRLLFVDLTDIARKTSLSLPPLAKVMDEIMKHGYEAHRTSFSPTGIKTDCPYAEVSEILKAYAKREGHHHHHH | soluble |
| MDLTQLEMFNAVAEAGSITQAAAKVHRVPSNLTTRLRQLETELGVDLFIRENQRLRLSPAGHNFLRYSQQILALVDEARSVVAGDEPQGLFSLGSLESTAAVRIPATLAEFNRRYPKIQFSLSTGPSGTMLDGVLEGKLNAAFIDGPINHTAIDGIPVYREELMIVTPQGYAPVTRASQVNGSNIYAFRANCSYRRHFESWFHADGAAPGTIHEMESYHGMLACVIAGAGIALIPRSMLESMPGHHQVEAWPLAEQWRWLTTWLVWRRGAKTRPLEAFIQLLDVPDSARQGYQ | soluble |
| MQTELTGKLQKLGFTENEAKIYIGLLRQGEVTAREIHEFTHVPRTKIYSTLNRMSKKKYIEVIEGTPAYFRSIDPEQLLERLRDEFLFSLNETLEELNSAGYGMKNKCC | not soluble |
| MDQNLKEQILELKRQKNAIILAHYYQRPEVQEIADFIGDSYNLSKIAKENDADTIVFCGVKFMAESAKVLSPQKKVLLPQPKAGCPMADMADAEGLAALKAKHPNAKVVSYINSSVEVKALCDTCCTSSNAAKIVKRIDSDEIIFLPDKNLGSYVQEMVPEKNIILWDGFCKVHNMIIPTDIEEMKNKYGDMKILAHPECWKPVRDMADFIGSTGAMIDYAEKDTTSDKYLVVTETGIMYKMQERVPNKTFYPLRSMVCVNMKATHLEDVYNSLVNSTFEINIEENLRQKALTSLENMLILGRLEHHHHHH | not soluble |
| AIASGAYDESAMSDETTDSFWEVGNYKRTVKRIEDGHRLCNDMMSCIQERAKIEKAYSQQLTDWSKRWRQLVERGPQYGTLERAWLAVMTEAEKVSELHQEVKNNLLNEDLEKVKNWQKDAYHKQMMGGFKETKEADEGFRKAQKPWAKKLKELETAKKTYHMACKEEKIASAREANSKGEASVTTDQQKKLQEKVDKCKNDVQKAKEKYEKSLDELNKCTPQYMENMEVVFDQCQQFEEKRLNFLREVLLDTKRHLNLTESQSYATVYRELERTIVSASAQEDLKWFSSVHGPGMHMNWPQFEEFNPDLSHAISKKEKVKRNHDGVTLTQVTHGAEHGTPQTGDRGSVSSYEKNQQYSAEWSDDEQPPTAAQSASETNGGNPFEEDSKGVRVRALYDYEGQEQDELTFKAGDELTKLEDEDEQGWCKGRLDSGQLGLYPANYVEPV | soluble |
